# According to patent US20220218614A1, “IONIZABLE CATIONIC LIPIDS AND LIPID NANOPARTICLES, AND METHODS OF SYNTHESIS AND USE THEREOF” (Tidal Therapeutics, Inc., priority 2020, published 2022):
# “Also recorded” adds a separate entry of the source.
# B1: Teplizumab: anti-CD3 Teplizumab bDS Fab, SEQ ID NO: 54 and 55 (antibody)
# heavy: QVQLVQSGGGVVQPGRSLRLSCKASGYTFTRYTMHWVRQAPGKGLEWIGYINPSRGYTNYNQKVKDRFTISRDNSKNTAFLQMDSLRPEDTGVYFCARYYDDHYCLDYWGQGTPVTVSSASTKGPSVFPLAPSSKSTSGGTAALGCLVKDYFPEPVTVSWNSGALTSGVHTCPAVLQSSGLYSLSSVVTVPSSSLGTQTYICNVNHKPSNTKVDKKVEPKSSDKTHTCHHHHHH
# light: DIQMTQSPSSLSASVGDRVTITCSASSSVSYMNWYQQTPGKAPKRWIYDTSKLASGVPSRFSGSGSGTDYTFTISSLQPEDIATYYCQQWSSNPFTFGQGTKLQITRTVAAPSVFIFPPSDEQLKSGTASVVCLLNNFYPREAKVQWKVDNALQSGNSQESVTEQDSKDSTYSLCSTLTLSKADYEKHKVYACEVTHQGLSSPVTKSFNRGES
# B2: BDSn: anti-CD8 Nanobody, SEQ ID NO: 77 (protein)
# VHH: EVQLVESGGGLVQAGGSLRLSCAASGSTFSDYGVGWFRQAPGKGREFVADIDWNGEHTSYADSVKGRFATSRDNAKNTAYLQMNSLKPEDTAVYYCAADALPYTVRKYNYWGQGTQVTVSSGGCGGHHHHHH
# modifications: conjugate
# B3: OKT8: anti-CD8 Fab, SEQ ID NO: 8 and 9 (antibody)
# heavy: QVQLVQSGAEDKKPGASVKVSCKASGFNIKDTYIHWVRQAPGQGLEWMGRIDPANDNTLYASKFQGRVTITADTSSNTAYMELSSLRSEDTAVYYCGRGYGYYVFDHWGQGTTVTVSSASTKGPSVFPLAPSSKSTSGGTAALGCLVKDYFPEPVTVSWNSGALTSGVHTFPAVLQSSGLYSLSSVVTVPSSSLGTQTYICNVNHKPSNTKVDKKVEPKSSDKTHTC
# light: DIVMTQSPSSLSASVGDRVTITCRTSRSISQYLAWYQEKPGKAPKLLIYSGSTLQSGVPSRFSGSGSGTDFTLTISSLQPEDFATYYCQQHNENPLTFGQGTKVEIKRTVAAPSVFIFPPSDEQLKSGTASVVCLLNNFYPREAKVQWKVDNALQSGNSQESVTEQDSKDSTYSLSSTLTLSKADYEKHKVYACEVTHQGLSSPVTKSFNRGES
# How the values were obtained:
# Assay type in all cases: cell-based
# [1] = test system: human CD3 T cells; test: Transfection of human CD3 T cells (CD8 and CD4 subsets) with Fab/Nb-targeted LNPs; conditions: targeted Lipid 8 LNP (Lipid 5 in Example 43), GFP mRNA approximately 2.5 μg/mL, approximately 24 hr
# Method: LNPs were prepared using the mixing process described in Example 6, the buffer exchange process described below in Example 21. Using methods similar to Example 12, hSP34 and TRX2 Fab-lipid conjugates and a non-T cell specific anti-HER2 lipid-conjugate (Nellis D F, Ekstrom D L, Kirpotin D B, Zhu J, Andersson R, Broadt T L, Ouellette T F, Perkins S C, Roach J M, Drummond D C, Hong K, Marks J D, Park J W and Giardina S L (2005) Preclinical manufacture of an anti-HER2 scFv-PEG-DSPE, liposome-inserting conjugate. 1. Gram-scale production and purification. Biotechnol Prog 21:205-220) were post-inserted at various densities (SP34 0.25-17 g/mol; TRX2 0.25-9 g/mol; SP34+TRX2 0.25-9 g/mol each conjugate; anti-HER2 17 g/mol) into LNPs containing Lipid 8 and anti-CD20 targeting CART mRNA. Transfections were performed with human CD3 T cells at approximately 2.5 μg/mL mRNA for approximately 24 hr. For FACS analysis T cells were stained with M1 antibody (Sigma, F3040) that bind a N-terminus FLAG-tag variant sequence on the TTR-023 CAR (sequence provided below) in addition to staining for CD69 (Biolegend, 310930) and CD4 (Biolegend, 344648) to differentiate CD8 from CD4 cells.
# LNPs were prepared using the mixing process described in Example 6, the buffer exchange process described in Example 21. Using methods similar to Example 12, hSP34, TRX2, and Ibalizumab Fab-lipid conjugates and a non-T cell specific anti-HER2 lipid-conjugate were post-inserted at various densities (specified in FIGS. 20A and 20B into LNPs containing Lipid 8 and Cy5/GFP mRNA. Transfections were performed with human CD3 T cells at approximately 2.5 μg/mL mRNA for approximately 24 hr and stained for CD69 (Biolegend, 310930) and CD4 (Biolegend, 344648) to differentiate CD8 from CD4 cells by FACS analysis.
# LNPs were prepared using the mixing process described in Example 6, the buffer exchange process described in Example 21. Conjugates were generated using a method similar to that of Example 4 except 0.025, 0.1, 0.5 mM TCEP was used for hSP34 DS, 0.025, 0.2, 2 mM TCEP was used for hSP34-hlam NoDS (interchain disulfide knockout) for reduction prior to conjugation and the conjugation reactions were performed at 37 C for 2 hr. SDS-PAGE (FIGS. 65A, 65B) was performed using the manufacturers recommended conditions with 1 ug of protein (Thermo, 4-12% Bis-Tris MiniGel). RP-HPLC (FIGS. 65C, 65D) was performed using an Agilent 300 SB-C8 at 0.5 mL/min with a column temperature of 60° C., Mobile Phase A: Water with 0.1% TFA, Mobile Phase B: Acetonitrile with 0.1% TFA, Gradient % B: 0 min 5%, 1 min 5%, 6.5 min 95%, 8 min 95% injecting 10 ul with a target of 1-25 ug of protein. Using methods similar to Example 12, ant-CD3 hSP34 (with and without natural interchain disulfide, DS (with interchain disulfide) vs. NoDS (without interchain disulfide), see sequences below) PEG-lipid conjugated Fabs were post-inserted at various Fab densities (6, 12, 17 g Fab/mol total lipid) into LNPs containing Lipid 8 and Cy5/GFP mRNA. Transfections were performed with human CD3 T cells at approximately 2.5 μg/mL mRNA for approximately 24 hr. Levels of transfection of CD3 T cells was measured by flow cytometry.
# LNPs were prepared using the mixing process described in Example 6, the buffer exchange process described in Example 21. Conjugates were generated using a method similar to that of Example 4 except 0.1 mM TCEP was used for reduction prior to conjugation and the conjugation reaction was performed at 37 C for 2 hr. […]
# [2] = test system: IFNγ; test: Human IFNγ ELISA of T cell culture supernatants after LNP transfection; conditions: T cells approximately 24 hr after targeted LNPs at approximately 2.5 μg/mL mRNA
# Method: (§1) LNPs were prepared using the mixing process described in Example 6, the buffer exchange process described in Example 21. hSP34 and TRX2 Fab-lipid conjugates generated from methods described in Example 4 and a non-T cell specific anti-HER2 lipid-conjugate (Nellis D F, Ekstrom D L, Kirpotin D B, Zhu J, Andersson R, Broadt T L, Ouellette T F, Perkins S C, Roach J M, Drummond D C, Hong K, Marks J D, Park J W and Giardina S L (2005) Preclinical manufacture of an anti-HER2 scFv-PEG-DSPE, liposome-inserting conjugate. 1. Gram-scale production and purification. Biotechnol Prog 21:205-220) were post-inserted at various densities (SP34 0.6-17 g/mol; TRX2 3-9 g/mol; anti-HER2 17 g/mol) into LNPs containing Lipid 8, Cy5 labeled GFP mRNA and GFP mRNA (1:9 Cy5:GFP mass ratio) by adding conjugate and LNPs together and heating the solution without mixing in a thermal cycler at 60 C for 60 min and cooled to 4° C. for 3-5 min. […] After transfection, LNP binding efficiency (Cy5) and transfection efficiency (GFP) was evaluated by flow cytometry. Supernatants were measured for human IFNγ concentration using a commercially available ELISA kit under manufacturers recommended conditions (R&D Systems Duoset).
# IFN-γ was assayed using an R&D Duoset […] ELISA kit, PN DY285B. […] Optical density at 450 nm was read on a Spectramax M5 plate reader. […]
# [3] = test system: human CD8 T cells; test: Transfection of human CD8 T cells with Fab-targeted Cy5/GFP mRNA LNPs; conditions: Lipid 8 LNP, Cy5/GFP mRNA approximately 2.5 μg/mL, approximately 24 hr, Fab conjugate post-inserted
# Method: as §1, with “Duoset). […]” for “Duoset).”
Molecule,"% GFP transfection and GFP expression (MFI) of CD8 and CD4 T cells, in words [1]","IFNγ secretion into supernatant, in words [2]","transfection (% GFP+, GFP MFI) and binding (% Cy5+, Cy5 MFI), in words [3]"
B1,lower levels of GFP expression,higher levels of IFNγ secretion than SP34,–
B2,higher % transfection (FIG. 73A) and GFP expression levels (FIG. 73B) than anti-CD8 TRX2; also recorded: transfection and translation was only observed in the CD8 T cell population,did not mediate substantial IFNγ secretion levels over non-targeted mutOKT8 Fab,–
B3,–,–,high levels of particle binding
